According to patent US20240218057A1 (ROCKEFELLER UNIVERSITY, published 2024):
Positions count from the first letter of the chain named.

B1: C1046 (antibody, V domains shown)
VH: EVQLVQSGAEVKKPGESLKISCKGSGYSFTSYWIGWVRQMPGKGLEWMGIIYPGDSDTRYSPSFQGQVTISADKSISTAYLQWSSLKASDTAMYYCARMVTSGTYYYDNSGYSSSGPFDYWGQGTLVTVSS
VL: DIQLTQSPSSLSASVGDRVTITCRASQGISSALAWYQQKPGKAPKLLIYDASSLESGVPSRFSGSGSGTDFTLTISSLQPEDFATYYCQQFNNFGPGTKVDIK
B2: C1047 (antibody, V domains shown)
VH: EVQLVQSGAEVKKPGESLKISCKGSGYSFISYWIVWVRQMPGKGLEWIGIIYPGDSDTIYSPSFQGQVTLSADKSISTAYLQWSSLKASDTAIYYCAKMVTSGTSYYETRGYASSGPFDNWGQGTLVTVSS
VL: DIQLTQSPSSLSASVGDRVTITCRASQGISSALAWYQQKPGKAPKLLIYDASSLESGVPSRFSGSGSGTDFTLTISSLQPEDFATYYCQQSDNFGPGTKVDI
B3: C1048 (antibody, V domains shown)
VH: EVQLVQSGAEVKKPGESLKISCKVSGYSFISHWIGWVRQMPGKGLEWMGIIYPGDSDTRYSPSFQGQVTISADKSISTAYLQWSSLKASDTAMYYCARRGASWELDYWGQGTLVTV
VL: QSVLTQPPSASGTPGQRVTISCSGSSSNIGSNPVSWYQQLPGPAPQLLIYGNDQRPSGVPDRFSGSKSGTSASLAISGLQSEDEADYYCAAWDDSLNGYVFGTGTKVTVL
B4: C1049 (antibody, V domains shown)
VH: EVQLVQSGAEVKKPGESLKISCKSSGYSFISHWIGWVRQMPGKGLEWMGIIWPGDSDTRYSPSFQGQVTISVDKSITTVYLQWSSLKAADTAMYYCARRGSSWEVDYWGQGTLVTVSS
VL: not shown
B5: C1050 (antibody, V domains shown)
VH: EVQLVESGGGLVQPGRSLRLSCAASGFTFDDYGMHWVRQAPGKGLEWVSGISWNGDSIGYADSVKGRFTISRDNAKTSLYLQMNRLRAEDTALYYCAKAASRSTRIGGAFDIWGQGTMVTVSS
VL: QSALTQPASVSGSPGQSITISCTGTSSDVGGYNLVSWYQQHPGKAPKLMIYEGSKRPSGVSNRFSGSKSGNTASLTISGLQAEDEADYYCCSYAYSFTNVFGTGTKVTV
B6: C1051 (antibody, V domains shown)
VH: B5 VH with A23V, M34L, G55S, T69A, K76R
VL: B5 VL with H41Y, G53D, N62H, Y95F
B7: C1053 (antibody, V domains shown)
VH: EVQLLESGGGLVQPGGSLRLSCAASGFTFSSYAMNWVRQAPGKGLEWVSAISGSGGGTYYADSVKGRFTISRDNSKNTLYLQMDSLRAEDTAVYYCAKDVPIEQQLVPTFDYWGQGALVTVSS
VL: DIQMTQSPSSLSASVGDRVTITCRASQSISRYLNWYQQKPGKAPKLLIYGASSLQSGVPSRFSGSGSGTDFTLTISSLQPEDFATYWCQQSYSTLSITFGQGTRLEIK
B8: C1054 (antibody, V domains shown)
VH: EVQLLESGGGLVQPGGSLRLSCVVSGFTFSSYAMNWVRQAPGKGLEWVSVIGGSGDGRYYADSVKGRFTISRDNSKNTLYLQMNSLRGDDTAVYYCARDVPVEQQLVPTFDYWGQGTLVTVSS
VL: B7 VL with G50A, D70E, W87Y
B9: C1055 (antibody, V domains shown)
VH: QVQLVESGGGVVQPGRSLRLSCAASGFTFSTYGMNWVRQAPGKGLEWVALILYDGSDKYYADSVKSRFTISRDNSRNTLYLQMTSLRAEDTAVYYCAKALSSTYYYDASGPDAFDIWGQGTMVTVSS
VL: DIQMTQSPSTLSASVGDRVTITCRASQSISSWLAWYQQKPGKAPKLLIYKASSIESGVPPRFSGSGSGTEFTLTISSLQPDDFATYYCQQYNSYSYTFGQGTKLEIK
B10: C1058 (antibody, V domains shown)
VH: EVQLVESGGGLVQPGGSLRLSCAASGIIVSSNYMNWVRQVPGKGLEWVSVLYSGGSTFYADSVRGRFTISRDNSKNTLFLQMNSLRPEDTAVYYCARDFREGAFDIWGQGTMVTV
VL: DIQLTQSPSFLSASVGDRVTITCRASQGISSYLAWYQQKPGKAPNLLIYAASTLQSGVPSRFSGSGSGTDFTLTISSLQPEDFATYYCQQLNSYSPLFGQGTRLEIK
B11: C1059 (antibody, V domains shown)
VH: EVQLVESGGGLVQPGGSLRLSCAASGVTVSYNYMHWVRQAPGKGLEWVSVFFPGGSIFYADSVKGRFSISRDNSHNTLYLQMNNLRPEDTAVYYCARDFREGAIDLWGQGTMVTVSS
VL: B10 VL with G16E, N45K, A50G, D70E, F83S, S95P
B12: C1061 (antibody, V domains shown)
VH: EVQLVESGGGLVQPGGSLRLSCAASGFTFSRYDMHWVRQGTGKGLEWVSAIGTSGDTYYPDSVKGRFTISRENAKNSLYLQMNSLRAGDTAVYYCARGGLQTTTWLFDYWGQGTLVTVSS
VL: B7 VL with G50A, S67A, T85I, W87Y, T94N, L95P, S96P
B13: C1062 (antibody, V domains shown)
VH: B12 VH with R31N, G40T, S54A, D61G, I69M, Y109N
VL: B7 VL with S28T, G50A, W87Y, S93T, T94M, L95P, S96P
B14: C1030 (antibody, V domains shown)
VH: EVQLVESGGGLVQPGGSLRLSCEASGVIVSSNYMNWVRQAPGKGPEWVSVLYAGGSTFYADSVKGRFTISRDDSKNTLFLQMNNLRAEDTAVYFCARDLIAFGMDVWGQGTTVTVSS
VL: DIQLTQSPSFLSASVGDRVTITCRASQGINSDLAWYQQKPGKAPKLLIYGASTLQSGVPSRFSGSGSGTEFSLTVSSLQPEDFATYYCQQLNSYRRFGGGTKVEIK
B15: C1040 (antibody, V domains shown)
VH: QVQLVESGGGVVQPGRSLRLSCAASGFSFINYNMHWVRQAPGKGLEWVAVIWYDGSNKYYADSVKGRFTISRDNSKNTLYLQMNSLRVEDTAVYYCARDPAITEAEIDYWGQGTLVTVSS
VL: DVVMTQSPLSLPVTLGQAASISCRSSQSLVHSDGNTYLNWFQQRPGQSPRRLIYRVSNRDSGVPDRFSASGSGTDFTLKISRVEAEDVGVYYCMQGTHWPWTFGQGTKVEIK
B16: C1043 (antibody, V domains shown)
VH: EVQLVESGGGLVQPGRSLRLSCAASGFIFDNYAMHWVRQAPGKGLEWVSGISWNSDSIGYADSVKGRFTISRDNAKNSLYLQMSSLRAEDTALYYCAKDLLGNYYYYTLDVWGQGTTVTVSS
VL: QSALTQPASVSGSPGQSITISCTGTSSDIGGNNYVSWYQQHPGKAPRLMIFDVSYRPSGVSNRFSGSKSGNTASLTISGLQAEDEADYYCISYTTSSTLGVFGGGTKLTVL
B17: C1052 (antibody, V domains shown)
VH: QVQLVQSGAEVKKPGASVKVSCKVSGYTLSELSMHWVRQAPGEGLEWLGGFDPEDGETINAQKFQGRVTMTEDRSTDTAYMELSSLRSEDTAVYYCATRGRYCSSGNCYYHHWGQGTLVTVSS
VL: DIQMTQSPSTLSASVGDRVIITCRASQNIHNWLAWYQQKPGKAPKLLIYKASSLESGVPSRFSGSGSGTEFTLTISSLQPDDFATYFCQQYHSYSWTFGQGTKVEIK
B18: C1057 (antibody, V domains shown)
VH: QVQLVQSGAEVKKPGSSVKVSCKASGGTFTTYIISWVRQAPGQGLEWMGGISPMLGTANYAQKFQGGVTITADESTTTAYMEMSGLRSEDTAVYYCARAHMYCSDGSCYRQSGYFDSWGQGTLVTVSS
VL: QSALTQPRSVSGSPGQSVTITCTGTSSNVGGYKYVSWFQQHPGKAPKFLIYDVSERSSGVPDRFSGSKSGNTASLTISGLQAEDEADYYCCSYAGKYTVVFGGGTRLTV
B19: C1060 (antibody, V domains shown)
VH: EVQLVESGGDLVQPGGSLRLSCAASEIIVSRNYMNWVRQAPGKGLEWVSIIYSGGSTFYGDSVKGRFTISRDSSKNTLYLQMHGLRVEDTAIYYCARSYGDYYIDYWGQGTLVTVSS
VL: DIQMTQSPSSVSASVGDRVTITCRTSQSISTSLAWYQQKPGKAPKLLIYAASSLQRGVPSRFSGTGSGTDFTLTISSLQPEDFATYYCQQSSSSPPLFTFGPGTKVDIK
B20: C1063 (antibody, V domains shown)
VH: EVQLVQSGAEVKKPGESLKISCKGYGNSFNNYWIAWVRQMPVKGLEWMGVINPGDSDTRYSPSFQGQVTISVDKSISTAYLQWSSLKASDTAMYYCARTWSPAAVAFFDSWGQGTLVTVS
VL: NFMLTQPHSVSESPGKTVTISCTRSSDSIGSNYVQWYQQRPGSSPTIVIYEDSQRPSGVPHRFSGSFDSSSNSASLTISGLKTEDEADYYCQSWDSGNLVFGGGTKLTVL
B21: C1065 (antibody, V domains shown)
VH: EVQLVESGGGLIQPGGSLRLSCAASGFTVSRNYMSWVRQAPGKGLEWVSVIYSGGSTFYADSVKGRFTISRDNSKNTLYLQMNSLRAEDTAVYYCARGLPTGEGWNYFDYWGQGTLVTVSS
VL: QSALTQPASVSGSPGQSITISCTGTSSDIGGYHYVSWYQQHPGKAPKLMIYDVSNRPSGISNRFSGSKSGNTASLTISGLQAEDEADYYCSSYASSSVIFGGGTKLTVL
B22: C1066 (antibody, V domains shown)
VH: EVQLVESGGGLVQPGRSLRLSCAASGFMFDDYAMHWVRQAPGKGLEWVSGINWSSADIGYVDSVKGRFTISRDNAKNSLYLQMNSLRTEDTAFYYCAKGWFGELLGGSDSWGQGTLVTVSS
VL: QLVLTQSSSASASLGSSVKLTCTLNSGHSSYIIAWHQQQPGKAPRYLMKLEGSGSYNKGSGVPDRFSGSSSGADRYLTISNLQFEDEADYYCATWDSNTQVFGGGTKLTVL
B23: C1067 (antibody, V domains shown)
VH: QVQLVQSGAEVKKPGASVKVSCKASRDTFTTHYIHWVRQAPGQGLEWMGIINPSGGSISYAQKFQGRVTMTRDTSTSTVYMELSSLRSEDTAVYYCARGGIVPHLSNWFDPWGQGTLVTVSS
VL: EIVLTQSPGTLSLSPGERATLSCRASQSVSSSYLAWYQQKPGQAPRLLIYGASSRATGIPDRFTGSGSGTDFTLTISRLEPEDFAVYYCQQYGRSSGFTFGPGTKVDIK
B24: C1068 (antibody, V domains shown)
VH: QVQLVESGGGVVQPGRSLRLSCAASGFTFSTFAMHWVRQAPGKGLEWVAVTSYDGSNKYYADSVKGRFTISRDNSKNTLYLQMNSLRAEDTAVYYCARGLLWFGESEYFQHWGQGTLVTVSS
VL: not shown
B25: C1068 (antibody, V domains shown)
VH: B24 VH
VL: not shown

target: T1, SARS-COV-2 RBD (SARS-COV-2, UniProt P0DTC2 319-539); test: ELISA, RBD coated on plate
T1 construct: also called WT RBD

Binder | EC50
B1 | 3.8 ng/mL
B2 | 2.46 ng/mL
B3 | 2.41 ng/mL
B4 | 2.81 ng/mL
B5 | 2.78 ng/mL
B6 | 1.4 ng/mL
B7 | 4.13 ng/mL
B8 | 1.84 ng/mL
B9 | 2.71 ng/mL
B10 | 2.13 ng/mL
B11 | 2.17 ng/mL
B12 | 2.26 ng/mL
B13 | 2.61 ng/mL
B14 | 2.78 ng/mL
B15 | 2.08 ng/mL
B16 | 2.77 ng/mL
B17 | 2.64 ng/mL
B18 | 2.17 ng/mL
B19 | 2.67 ng/mL
B20 | 3.04 ng/mL
B21 | 3.52 ng/mL
B22 | 3.01 ng/mL
B23 | 2.93 ng/mL
B24 | 2.48 ng/mL

target: T2, SARS-COV-2 RBD (SARS-COV-2, UniProt P0DTC2 319-539); test: ELISA, RBD coated on plate
T2 construct: also called WT RBD

Binder | EC50
B25 | 2.48 ng/mL
